The source of these data is patent US20250019457A1 (IBIO, published 2025).

In experiment [1] the target is T1, cynomolgus/rhesus TROP2 (purified recombinant antigen, Acro Biosystems Cat #TR2-R52H3) (cynomolgus/rhesus, UniProt P09758 27-274 (human entry)).
T1 construct: Bought recombinant protein; also called cyTROP2; cyno/rhesus TROP2
T1 chain: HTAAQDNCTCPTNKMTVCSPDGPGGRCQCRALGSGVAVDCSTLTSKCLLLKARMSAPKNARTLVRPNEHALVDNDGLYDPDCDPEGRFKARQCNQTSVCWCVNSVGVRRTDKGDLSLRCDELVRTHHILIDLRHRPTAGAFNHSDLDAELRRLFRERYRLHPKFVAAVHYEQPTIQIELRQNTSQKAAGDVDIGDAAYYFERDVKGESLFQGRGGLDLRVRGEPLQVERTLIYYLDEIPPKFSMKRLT
Description: SPR, Carterra LSA; antibody captured on anti-human IgG, antigen injected; 1:1 fit. On the technique in general: In SPR one partner is held on a chip, and binding of the other changes the refractive index at the surface.

The target in experiment [2] is T2, human TROP2 (purified recombinant antigen, Acro Biosystems Cat #TR2-H5223) (human, UniProt P09758 27-274).
T2 construct: Bought recombinant protein; also called huTROP2
T2 sequence: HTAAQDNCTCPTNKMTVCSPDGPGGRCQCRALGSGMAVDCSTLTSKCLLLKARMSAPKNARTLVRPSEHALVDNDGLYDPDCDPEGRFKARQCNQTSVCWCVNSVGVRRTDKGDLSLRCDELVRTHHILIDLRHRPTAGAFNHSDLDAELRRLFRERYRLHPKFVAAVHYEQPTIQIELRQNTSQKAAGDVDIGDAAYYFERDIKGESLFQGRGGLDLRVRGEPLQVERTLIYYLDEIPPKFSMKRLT
Described as above.

Experiment [3] deals with T3, mouse TROP2 (purified recombinant antigen, Acro Biosystems Cat #TR2-M52H6) (mouse, UniProt Q8BGV3 25-270).
T3 construct: Bought recombinant protein; also called msTROP2
T3 sequence: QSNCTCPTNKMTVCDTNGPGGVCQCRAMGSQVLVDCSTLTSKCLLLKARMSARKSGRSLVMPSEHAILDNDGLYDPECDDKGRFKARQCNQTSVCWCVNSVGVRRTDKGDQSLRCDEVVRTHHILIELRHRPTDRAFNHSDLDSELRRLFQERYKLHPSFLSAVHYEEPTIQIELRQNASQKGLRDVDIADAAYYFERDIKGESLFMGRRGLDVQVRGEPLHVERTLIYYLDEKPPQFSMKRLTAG
The description is as above.

Experiment [4] has as its target T2, human TROP2 (purified recombinant …). Described as above. This is another data set of the same source.
In experiment [5] the target is T4, human EpCAM (purified recombinant antigen, Acro Biosystems Cat #EPM-H5223) (human, UniProt P16422 24-265).
T4 construct: Bought recombinant protein
T4 sequence: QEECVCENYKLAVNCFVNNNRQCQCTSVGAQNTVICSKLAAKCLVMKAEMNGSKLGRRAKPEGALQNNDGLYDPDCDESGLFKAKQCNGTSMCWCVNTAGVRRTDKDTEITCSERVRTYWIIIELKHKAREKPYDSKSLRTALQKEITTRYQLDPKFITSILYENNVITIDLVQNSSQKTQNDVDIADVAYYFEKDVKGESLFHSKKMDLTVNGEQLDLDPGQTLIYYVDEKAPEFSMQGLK
Description: SPR, Carterra LSA; antibody captured on anti-human IgG, antigen injected.

Experiment [6] concerns the target T5, human Trop2 on cells (FaDu cells, endogenous; ExpiCHO cells overexpressing human Trop2) (human, UniProt P09758 27-323).
T5 construct: Cell-surface form
T5 sequence: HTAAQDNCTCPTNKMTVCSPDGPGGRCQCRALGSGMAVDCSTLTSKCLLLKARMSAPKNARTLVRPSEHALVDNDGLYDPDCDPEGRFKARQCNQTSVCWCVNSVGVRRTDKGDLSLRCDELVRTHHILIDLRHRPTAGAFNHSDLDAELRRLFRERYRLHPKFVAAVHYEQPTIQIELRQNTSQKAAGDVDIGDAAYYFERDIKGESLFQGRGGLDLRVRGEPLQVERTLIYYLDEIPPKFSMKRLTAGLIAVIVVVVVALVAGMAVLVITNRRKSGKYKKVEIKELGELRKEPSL
Description: flow cytometry on FaDu cells (endogenous human Trop2); average of n=1-3 experiments.

The target of experiment [7] is T3, mouse TROP2 (purified recombinant …). Description: SPR, Carterra LSA; ratio of KD values, reference huTROP2.
Experiment [8] deals with T6, mouse Trop2 on ExpiCHO cells overexpressing mouse Trop2 (mouse, UniProt Q8BGV3 25-317).
T6 construct: Cell-surface form
T6 sequence: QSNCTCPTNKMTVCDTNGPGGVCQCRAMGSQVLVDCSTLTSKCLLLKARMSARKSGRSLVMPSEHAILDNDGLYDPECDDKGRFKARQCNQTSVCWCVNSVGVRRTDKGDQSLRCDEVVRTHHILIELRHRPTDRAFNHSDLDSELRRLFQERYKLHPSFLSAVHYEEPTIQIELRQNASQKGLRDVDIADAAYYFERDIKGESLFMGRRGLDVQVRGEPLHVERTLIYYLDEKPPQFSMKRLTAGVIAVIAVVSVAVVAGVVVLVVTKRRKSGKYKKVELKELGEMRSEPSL
Description: flow cytometry on ExpiCHO cells overexpressing mouse Trop2, percent of cells bound. A general note: In flow cytometry, cells or beads pass a laser one at a time.

Experiment [9] has as its target T2, human TROP2 (purified recombinant …). Description: MSD assay: biotinylated TROP2 on streptavidin plate, antibody titrated, anti-human SULFO-TAG detection.
Experiment [10] addresses T5, human Trop2 on cells (FaDu cells, …). Description: flow cytometry on ExpiCHO cells overexpressing human Trop2, percent of cells bound.

Read-outs that look alike come from different tables or passages of the source.

B1: SD-168804 (antibody, V domains shown)
VH: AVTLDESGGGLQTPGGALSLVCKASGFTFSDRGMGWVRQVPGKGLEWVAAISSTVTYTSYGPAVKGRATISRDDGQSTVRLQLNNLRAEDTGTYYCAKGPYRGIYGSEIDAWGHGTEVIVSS
VL: ALALTQPSSVSANPGETVKITCSGGSYSYGSYYYGWYQQKSPGSAPVTVIYDNDKRPSGIPSRFSGSKSGSTGTLTITGVQAEDEAVYFCGSTDSSSTAAFGAGTTLTVL
notes: Chicken/human chimera
One may read the Kd as the concentration at which binding is half-saturated. Usually koff stands for a measure of how fast the partners let go of each other. In general, kon refers to a measure of how fast the partners come together. Usually EC50 stands for the concentration at which the effect is half-maximal. A lower EC50 goes with higher potency in that assay. As usually defined, the EC50 (read off the curve) is the concentration that produces a half-maximal response. For B1, the Kd in experiment [1] was determined as 15.3 nM; in [2], 11.5 nM; in experiment [3] it was 13.6 nM; in experiment [4], 11.5 nM. The dissociation rate constant (koff) in [4] was 0.000294 s⁻¹. Moreover, the association rate constant (kon) in experiment [4] was 25500 M⁻¹ s⁻¹. In addition, the binding result in experiment [5] was “no binding (tested: 1 µM top concentration)”. For the same molecule, in [6], the concentration for a half-maximal effect (EC50) was determined as 1.05 nM. The “Fold difference in affinity (huTROP2:msTROP2)” value (from here on “Fold difference in affinity”) in experiment [7] worked out at 1.2 fold. Further, the “EC50 (read off the curve)” value in experiment [8] is about 5 nM.

B2: SD-530939 (antibody, V domains shown)
VH: AVTLDESGGGLQTPGGGLSLVCKASGFDFIDYDMFWVRQAPGKGLEWVGVINRSGSYTNYAPAVKGRATISRDNGQSTLRLQLNNLRAEDTGTYYCARGACTHCWDADSAGYIDAWGHGTEVIVSS
VL: ALALTQPSSVSANPGETVKITCSGGYSGYGWYQQKSPGSAPVTVIYWNDKRPSNIPSRFSGSLSGSTNTLIITGVQAEDEAVYFCGGYDSSPGYVGIFGAGTTLTVL
notes: Chicken/human chimera
As for B2, the Kd in experiment [1] was 0.6 nM; in experiment [2], 0.46 nM; in experiment [3] it was 0.96 nM; in experiment [4], 0.46 nM. Besides, in [4], the koff came to 0.000155 s⁻¹. For the same molecule, the kon in experiment [4] amounted to 337000 M⁻¹ s⁻¹. Further, in experiment [5], the binding result is recorded as “no binding (tested: 1 µM top concentration)”. For the same molecule, the EC50 in experiment [6] stood at 0.673 nM. In addition, in [7], the “Fold difference in affinity” value was found to be 2.1 fold. For the same molecule, the “EC50 (read off the curve)” value in experiment [9] was about 0.2 nM; in [8] it was about 0.02 nM; in experiment [10], about 0.02 nM.

B3: SD-320063 (antibody, V domains shown)
VH: AVTLDESGGGLQTPGGGLSLVCKASGFDFIDYDMFWVRQAPGKGLAWVGVINRSGSYTNYAPAVKGRATISRDNGQSTVRLQLNNLRAEDTGTYYCAKGVCTHCWDADSAGNIDAWGHGTEVIVSS
VL: ALALTQPSSVSANPGETVEITCSGGSGNYGWFQQKSPGSAPVTVIYNNNYRLSDIPSRFSGSASGSTATLTITGVRVEDEAVYFCGSADSTYVGLFGAGTTLTVL
notes: Chicken/human chimera
In the case of B3, the Kd in experiment [1] is 0.11 nM; in experiment [2] it was 0.23 nM; in experiment [3], 1.59 nM; in experiment [4], 0.23 nM. Also, the dissociation rate constant (koff) in [4] turned out to be 3.42e-05 s⁻¹. Further, in experiment [4], the on-rate (kon) was determined as 148000 M⁻¹ s⁻¹. The binding result in [5] is on record as “no binding (tested: 1 µM top concentration)”. Further, a half-maximal response in experiment [6] (EC50) required 1.99 nM. For the same molecule, the “Fold difference in affinity” value in experiment [7] is 6.9 fold. In addition, the “EC50 (read off the curve)” value in experiment [8] is about 0.03 nM.

B4: SD-589775 (antibody, V domains shown)
VH: AVTLDESGGGLQTPGGGLSLVCKASGFDFIDYDMFWVRQAPGKGLEWVGVINRSGSYTNYAPAVKGRATISRDNGQSTMRLQLNNLRAEDTGTYYCARGACTHCWDADSAGYIDAWGHGTEVIVSS
VL: ALALTQPSSVSANPGGTVKITCSGSSGSYGWHQQKSPGSAPVTVIYSSDKRPSDIPSRFSGALSGSTATLTITGVRAEDEAVYYCGGYDGSTDVGIFGAGTTLTVL
notes: Chicken/human chimera; also called parental chimera
B4: the Kd in experiment [1] amounted to 0.48 nM; in experiment [2], 0.35 nM; in [3], 0.35 nM; in experiment [4] it was 0.35 nM. Moreover, the koff in [4] was determined as 0.000223 s⁻¹. In addition, in experiment [4], the kon is 643000 M⁻¹ s⁻¹. The binding result in experiment [5] is given as “no binding (tested: 1 µM top concentration)”. In experiment [6], this molecule yielded an EC50 of 0.607 nM. Besides, the “Fold difference in affinity” value in experiment [7] stood at 1 fold. The half-maximal effective concentration (EC50 (read off the curve)) in experiment [8] and in experiment [10] was about 0.02 nM in each case.

B5: SD-802432 (antibody, V domains shown)
VH: AVTLDESGGGLQTPGGGLSLVCKASGFDFIDYDMFWVRQAPGKGLEWVAVINRSGSYTNYAPAVKGRATISRDNGQSTLRLQLNNLRAEDTGTYYCARGACTHCWDADSAGYIDTWGHGTEVIVSS
VL: ALALTQPSSVSANPGETVKITCSGGSGSYGWFQQKSPGIAPVIVIFNDDNRPSDIPSRFSGSKSGSTGTLTITGVQAEDEAVYFCGGYDGSTDAGIFGAGTTLTVL
notes: Chicken/human chimera
Take B5: the dissociation constant Kd in experiment [1] came out at 0.13 nM; in experiment [2], 0.1 nM; in [3], 0.3 nM; in experiment [4] it was 0.1 nM. In experiment [4], the off-rate constant (koff) was determined as 5.53e-05 s⁻¹. The kon in experiment [4] is 542000 M⁻¹ s⁻¹. Moreover, the binding result in experiment [5] is listed as “no binding (tested: 1 µM top concentration)”. In experiment [6], this molecule yielded an EC50 of 0.738 nM. Also, the “Fold difference in affinity” value in experiment [7] is 2.9 fold. Besides, the half-maximal effective concentration (EC50 (read off the curve)) in experiment [9] was about 0.2 nM; in [8], about 0.02 nM; in experiment [10], about 0.02 nM.

B6: SD-970200 (antibody, V domains shown)
VH: AVTLDESGGGLQTPGGALSLVCKGSGFTFSSYAMGWVRQAPGKGLEYVAAISSGSSTGYGAAVKGRATISKDTGQSTVRLQLNNLRAEDTATYYCAKSGYGGSASYVSDIDAWGHGTEVIVSS
VL: ALALTQPSSVSANPGETVEITCSGGGDYYGTYYYGWYQQKAPGSAPVTVIYDNTKRPSNIPSRFSGSTSGSTNTLTITGVQADDEAVYYCGSYDSSAGIFGAGTTLTVL
notes: Chicken/human chimera
Turning to B6, the Kd in experiment [1] is 0.29 nM; in experiment [2], 0.21 nM; in experiment [3] it was 0.63 nM; in [4], 0.21 nM. For the same molecule, the koff in [4] is 0.000114 s⁻¹. Moreover, the association rate constant (kon) in experiment [4] came out at 555000 M⁻¹ s⁻¹. In [5], the binding result is reported as “no binding (tested: 1 µM top concentration)”. The molecule also registered a 50% effective concentration (EC50) in [6] of 1.53 nM. Besides, the “Fold difference in affinity” value in experiment [7] amounted to 3 fold. The “EC50 (read off the curve)” value was about 0.2 nM in [9] and about 0.05 nM in experiment [10].
